The text below walks through data of US20220135701A1 (Genentech, published 2022).

Positions count from the first letter of the chain named. Names may count otherwise.

As usually defined, the Kd is the concentration at which binding is half-saturated. A lower Kd goes with higher affinity.

B1: h13B4.V1 HC F91Y (antibody, name in Kabat numbering, V domains shown)
VH: EQQLVESGEGLVQPGGSLRLSCAVSGFSLSSYAMGWVRQAPGKGLEWIGIINSYGNTYYANWAKGRFTISRDSSKNTVYLQMGSLRAEDMAVYYCARDPGVSSNLWGPGTLVTVSS
VL: DVQMTQSPSTLSASVGDRVTITCQASQNIYSGLAWYQQKPGKPPKLLIYGASKLASGVPSRFSGSGSGTEFTLTISSLQPDDFATYYCQATYYSSNSVAFGGGTKVEIK
notes: Framework variant of h13B4.v1 (human IgG1)
B2: h13B4.V1 HC Q2V (antibody, human IgG1, name in Kabat numbering, V domains shown)
VH: B1 VH with Q2V, Y94F
VL: B1 VL
notes: as for B1
B3: h13B4.V1 HC P105R (antibody, name in Kabat numbering, V domains shown)
VH: B1 VH with Y94F, P108R
VL: B1 VL
notes: as for B1
B4: h13B4.V1 HC V24A (antibody, human IgG1, name in Kabat numbering, V domains shown)
VH: B1 VH with V24A, Y94F
VL: B1 VL
notes: as for B1
B5: h13B4.V1 HC G49S (antibody, human IgG1, name in Kabat numbering, V domains shown)
VH: B1 VH with G49S, Y94F
VL: B1 VL
notes: as for B1
B6: h13B4.V1 LC P43A (antibody, human IgG1, name in Kabat numbering, V domains shown)
VH: B1 VH with Y94F
VL: B1 VL with P43A
notes: as for B1
B7: h13B4.V1 HC W47Y (antibody, human IgG1, name in Kabat numbering, V domains shown)
VH: B1 VH with W47Y, Y94F
VL: B1 VL
notes: as for B1
B8: h13B4.V1 HC I48V (antibody, human IgG1, name in Kabat numbering, V domains shown)
VH: B1 VH with I48V, Y94F
VL: B1 VL
notes: as for B1
B9: h13B4.V1 LC V21 (antibody, human IgG1, V domains shown)
VH: B1 VH with Y94F
VL: B1 VL with V2I
notes: Framework variant of h13B4.v1 (human IgG1); read as V2I (V at VL position 2 in v1, I in v16); also called LC V2I
B10: h13B4.V1 HC V78L (antibody, human IgG1, name in Kabat numbering, V domains shown)
VH: B1 VH with V78L, Y94F
VL: B1 VL
notes: as for B1
B11: h13B4.V1 HC S73N (antibody, human IgG1, name in Kabat numbering, V domains shown)
VH: B1 VH with S73N, Y94F
VL: B1 VL
notes: as for B1
B12: h10F7.V1 HC F91Y (antibody, name in Kabat numbering, V domains shown)
VH: EQQLVESGGGLVQPGGSLRLSCAVSGFSLSGYAMSWVRQAPGKGLEYIGVISSSGSSYYPSWAKGRFTISKDSSKNTVYLQMGSLRAEDMAVYYCARVQFYVGYAVYGYGIIDRLDLWGQGTLVTVSS
VL: DAVLTQSPDSLAVSLGERATINCQSSKSVYNNNWLSWYQQKPGQPPKLLIYRASTLESGVPDRFSGSGSGTDFTLTISSLQAEDVAVYFCAGGYSSSSSANAFGGGTKVEIK
notes: Framework variant of h10F7.v1 (human IgG1)
B13: h10F7.V1 HC Q2V (antibody, human IgG1, name in Kabat numbering, V domains shown)
VH: B12 VH with Q2V, Y94F
VL: B12 VL
notes: as for B12
B14: h10F7.V1 LC A2I (antibody, human IgG1, name in Kabat numbering, V domains shown)
VH: B12 VH with Y94F
VL: B12 VL with A2I
notes: as for B12
B15: h10F7.V1 HC K71R (antibody, human IgG1, name in Kabat numbering, V domains shown)
VH: B12 VH with K71R, Y94F
VL: B12 VL
notes: as for B12
B16: h10F7.V1 LC F87Y (antibody, name in Kabat numbering, V domains shown)
VH: B12 VH with Y94F
VL: B12 VL with F89Y
notes: as for B12
B17: h10F7.V1 HC I48V (antibody, human IgG1, name in Kabat numbering, V domains shown)
VH: B12 VH with I48V, Y94F
VL: B12 VL
notes: as for B12
B18: h10F7.V1 HC G49S (antibody, human IgG1, name in Kabat numbering, V domains shown)
VH: B12 VH with G49S, Y94F
VL: B12 VL
notes: as for B12
B19: h10F7.V1 HC V78L (antibody, human IgG1, name in Kabat numbering, V domains shown)
VH: B12 VH with V78L, Y94F
VL: B12 VL
notes: as for B12
B20: h10F7.V1 LC L4M (antibody, human IgG1, name in Kabat numbering, V domains shown)
VH: B12 VH with Y94F
VL: B12 VL with L4M
notes: as for B12
B21: h10F7.V1 HC S73N (antibody, human IgG1, name in Kabat numbering, V domains shown)
VH: B12 VH with S73N, Y94F
VL: B12 VL
notes: as for B12
B22: h10F7.V1 HC V24A (antibody, human IgG1, name in Kabat numbering, V domains shown)
VH: B12 VH with V24A, Y94F
VL: B12 VL
notes: as for B12
B23: h10C3.V1 HC F91Y (antibody, name in Kabat numbering, V domains shown)
VH: EQQLVESGGGLVQPGGSLRLSCAASGFSLSGYTMGWVRQAPGKGLEYIGVISSGGTTYYTNWAKGRFTISKDSSKNTVYLQMGSLRAEDMAVYYCARVAFTAYGGGGFPTLHRLDLWGQGTLVTVSS
VL: DQVLTQSPDSLAVSLGERATINCQSSESVYNNDYLAWYQQKPGQPPKLLIYSASTLASGVPDRFSGSGSGTDFTLTISSLQAEDVAVYYCAGGYLGNNVFGGGTKVEIK
notes: Framework variant of h10C3.v1 (human IgG1)
B24: h10C3.V1 LC L4M (antibody, human IgG1, name in Kabat numbering, V domains shown)
VH: B23 VH with Y94F
VL: B23 VL with L4M
notes: as for B23
B25: h10C3.V1 HC Q2V (antibody, human IgG1, name in Kabat numbering, V domains shown)
VH: B23 VH with Q2V, Y94F
VL: B23 VL
notes: as for B23
B26: h10C3.V1 HC S73N (antibody, human IgG1, name in Kabat numbering, V domains shown)
VH: B23 VH with S73N, Y94F
VL: B23 VL
notes: as for B23
B27: h10C3.V1 HC G49S (antibody, human IgG1, name in Kabat numbering, V domains shown)
VH: B23 VH with G49S, Y94F
VL: B23 VL
notes: as for B23
B28: h10C3.V1 HC V78L (antibody, human IgG1, name in Kabat numbering, V domains shown)
VH: B23 VH with V78L, Y94F
VL: B23 VL
notes: as for B23
B29: h10C3.V1 HC I48V (antibody, human IgG1, name in Kabat numbering, V domains shown)
VH: B23 VH with I48V, Y94F
VL: B23 VL
notes: as for B23
B30: h10C3.V1 HC K71R (antibody, human IgG1, name in Kabat numbering, V domains shown)
VH: B23 VH with K71R, Y94F
VL: B23 VL
notes: as for B23

In the test the target is T1, human MerTK (human, UniProt Q12866 26-499).
T1 construct: also called HuMER
T1 sequence: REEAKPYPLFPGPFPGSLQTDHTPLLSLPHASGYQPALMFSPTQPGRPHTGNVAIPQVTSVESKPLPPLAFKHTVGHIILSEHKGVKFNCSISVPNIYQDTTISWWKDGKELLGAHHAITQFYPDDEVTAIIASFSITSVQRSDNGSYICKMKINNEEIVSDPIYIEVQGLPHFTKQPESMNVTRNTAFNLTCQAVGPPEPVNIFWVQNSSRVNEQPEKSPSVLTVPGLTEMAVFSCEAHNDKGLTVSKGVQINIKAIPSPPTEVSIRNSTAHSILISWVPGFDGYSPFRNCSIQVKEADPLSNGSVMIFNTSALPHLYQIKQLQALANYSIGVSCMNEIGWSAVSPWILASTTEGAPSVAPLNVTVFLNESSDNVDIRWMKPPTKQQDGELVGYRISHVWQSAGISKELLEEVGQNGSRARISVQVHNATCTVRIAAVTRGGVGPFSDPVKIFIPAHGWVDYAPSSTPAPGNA
In words: SPR BIAcore T200, Ab captured, 37C. Here is the method: Each humanized mutation variant was subject to BIAcore analysis to determine the important rabbit residues for binding and stability. Binding affinity determinations were obtained using Surface Plasmon Resonance (SRP) measurements from a BIAcore™-T200 instrument. Briefly, each humanized mutation variant antibody was captured to achieve approximately 100 RU (Response Units). Then, 3-fold serial dilutions of human MerTK (0.4 nM to 100 nM) diluted in HBS-EP buffer (0.01M HEPES pH 7.4, 0.15M NaCl, 3 mM EDTA and 0.05% v/v surfactant P20) was injected into the BIAcore™-T200 instrument at 37° C. with a flow rate of 30 μl/min. Association rates (kₒₙ) and dissociation rates (koff) were calculated using a simple one-to-one Langmuir binding model (BIAcore T200 evaluation software version 2.0). The equilibrium dissociation constant (KD) was calculated as the ratio koff/kₒₙ.
In general terms: SPR reads the build-up and loss of mass on a sensor chip optically.
B1 gave a Kd of 4.5 nM.
In the case of B2, binding was put at a Kd of 4.5 nM.
To B3 belongs 4.2 nM; to B4, 6 nM; to B5, 51.5 nM.
Then B6, with 4.6 nM; and B7, with 3.1 nM.
To B8 belongs 5.8 nM; to B9, 5.6 nM; to B10, 9.2 nM.
As to B11, the affinity, expressed as Kd, was 4.7 nM.
Take B12: the Kd is 6.4 nM.
To B13 belongs 5.9 nM.
Then B14, with 5.9 nM.
B15 displayed a Kd of 15.3 nM.
To B16 belongs 8.8 nM.
To B17 belongs 9.3 nM; to B18, 9.5 nM; to B19, 5.1 nM.
Then B20, with 6.2 nM; and B21, with 7.6 nM.
The molecule B22 had a Kd of 9.4 nM.
To B23 belongs 14.9 nM.
Then B24, with 12.3 nM; and B25, with 12.5 nM.
Then B26, with 15 nM; and B27, with 30.2 nM.
B28 had a Kd of 7.4 nM.
Then B29, with 17.1 nM; and B30, with 20 nM.
